Reference: article PMC2607196

Molecular target: CNTF-Rα/CNTF binary complex (human) (UniProt P26441)
Experiment: SEC

Substance	stoichiometry N
gp130 (D1-D3) (domain or fragment)	1
gp130 (D2-D3) (from UniProt P40189 23-918) (domain or fragment)	1
